{"source": "paper PMC9554601", "molecular_target": "stabilized SARS-CoV-2 spike protein trimer (S-6P) (SARS-CoV-2) (UniProt P0DTC2)", "assay": "cryo-EM structure", "data": [{"substance": "stabilized SARS-CoV-2 spike protein trimer (S-6P) (from UniProt P0DTC2)", "values": [{"measurement": "stoichiometry N", "value": 3}]}]}
